From the supplement of paper PMC6379048

Legend:
Experiment in all cases: Kd (EC50 corrected by depletion factor)
AQR = biological target: T1, AQR (UniProt O60306)
T1 sequence: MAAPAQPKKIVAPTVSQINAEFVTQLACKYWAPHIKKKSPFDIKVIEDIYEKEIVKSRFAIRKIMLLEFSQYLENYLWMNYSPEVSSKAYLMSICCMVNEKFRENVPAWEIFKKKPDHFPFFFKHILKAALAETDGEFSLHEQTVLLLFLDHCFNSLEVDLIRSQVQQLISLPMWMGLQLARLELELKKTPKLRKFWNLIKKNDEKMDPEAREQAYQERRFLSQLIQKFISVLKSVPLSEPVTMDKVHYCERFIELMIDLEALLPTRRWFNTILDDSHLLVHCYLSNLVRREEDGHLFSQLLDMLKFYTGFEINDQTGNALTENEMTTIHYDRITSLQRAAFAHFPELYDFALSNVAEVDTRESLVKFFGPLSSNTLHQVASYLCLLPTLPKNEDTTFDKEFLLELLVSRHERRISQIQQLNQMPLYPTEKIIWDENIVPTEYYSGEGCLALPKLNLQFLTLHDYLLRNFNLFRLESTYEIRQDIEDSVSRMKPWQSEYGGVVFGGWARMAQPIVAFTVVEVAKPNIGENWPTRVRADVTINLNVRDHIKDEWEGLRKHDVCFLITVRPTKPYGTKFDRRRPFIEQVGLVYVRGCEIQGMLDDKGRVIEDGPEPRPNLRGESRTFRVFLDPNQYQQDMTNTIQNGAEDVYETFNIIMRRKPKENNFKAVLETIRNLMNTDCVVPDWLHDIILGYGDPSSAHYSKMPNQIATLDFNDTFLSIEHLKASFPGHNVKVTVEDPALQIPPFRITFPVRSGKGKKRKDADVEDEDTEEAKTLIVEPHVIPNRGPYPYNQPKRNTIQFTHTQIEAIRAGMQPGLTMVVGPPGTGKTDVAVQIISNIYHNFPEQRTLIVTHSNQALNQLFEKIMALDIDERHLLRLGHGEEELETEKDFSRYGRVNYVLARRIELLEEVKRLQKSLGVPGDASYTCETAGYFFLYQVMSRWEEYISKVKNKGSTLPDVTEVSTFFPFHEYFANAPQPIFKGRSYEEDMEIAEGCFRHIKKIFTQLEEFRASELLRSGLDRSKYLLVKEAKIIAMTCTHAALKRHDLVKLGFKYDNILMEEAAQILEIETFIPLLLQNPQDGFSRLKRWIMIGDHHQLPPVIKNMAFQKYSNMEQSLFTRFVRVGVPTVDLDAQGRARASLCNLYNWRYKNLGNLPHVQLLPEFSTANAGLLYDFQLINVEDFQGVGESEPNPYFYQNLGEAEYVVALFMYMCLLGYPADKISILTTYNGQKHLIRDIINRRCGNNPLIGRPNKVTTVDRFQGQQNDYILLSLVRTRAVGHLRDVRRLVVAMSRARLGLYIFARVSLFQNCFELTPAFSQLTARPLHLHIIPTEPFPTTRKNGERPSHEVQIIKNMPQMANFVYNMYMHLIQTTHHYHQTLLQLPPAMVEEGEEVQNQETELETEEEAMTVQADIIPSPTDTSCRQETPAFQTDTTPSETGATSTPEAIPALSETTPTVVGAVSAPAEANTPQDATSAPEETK
Outline: (§1)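 Over three biological replicates and two independent experiments, proteins captured on NHS-Sepharose beads carrying 5′-amino-C6 RNA oligos were quantified by label-free LC-MS/MS and normalised to the control. Capture lasted 30 min at 4°C and followed a 1 h pre-incubation at 4°C of HEK293-FT lysate (2.5 mg protein/well) with the same oligos in free form (0 nM to 30 μM). EC50 was taken from a four-parameter log-logistic fit, and Kd was EC50 corrected by a protein-dependent depletion factor.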

FUBP3 = biological target: T2, FUBP3 (UniProt Q96I24)
T2 sequence: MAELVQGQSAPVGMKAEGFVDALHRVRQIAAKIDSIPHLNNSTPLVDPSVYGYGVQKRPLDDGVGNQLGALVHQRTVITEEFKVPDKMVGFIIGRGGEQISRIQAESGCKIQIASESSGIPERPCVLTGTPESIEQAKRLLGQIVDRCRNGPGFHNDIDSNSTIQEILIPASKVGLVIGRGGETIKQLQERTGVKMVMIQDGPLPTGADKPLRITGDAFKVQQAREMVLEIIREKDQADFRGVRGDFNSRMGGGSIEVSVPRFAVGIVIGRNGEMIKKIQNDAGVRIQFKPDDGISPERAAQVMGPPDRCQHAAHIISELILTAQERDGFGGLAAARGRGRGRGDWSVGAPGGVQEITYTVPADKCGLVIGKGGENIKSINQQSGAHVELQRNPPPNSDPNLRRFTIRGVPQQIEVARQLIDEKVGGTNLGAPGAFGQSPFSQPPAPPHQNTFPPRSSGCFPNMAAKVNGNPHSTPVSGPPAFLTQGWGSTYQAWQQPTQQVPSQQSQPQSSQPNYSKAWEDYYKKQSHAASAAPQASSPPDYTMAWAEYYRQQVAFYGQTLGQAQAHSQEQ
Outline: as §1

LSM4 = biological target: T3, LSM4 (UniProt Q9Y4Z0)
T3 sequence: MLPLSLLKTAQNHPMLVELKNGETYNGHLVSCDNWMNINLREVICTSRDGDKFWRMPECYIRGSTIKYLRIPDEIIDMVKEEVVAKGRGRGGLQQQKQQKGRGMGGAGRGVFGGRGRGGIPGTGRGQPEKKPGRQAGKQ
Outline: as §1

RBM17 = biological target: T4, RBM17 (UniProt Q96I25)
T4 sequence: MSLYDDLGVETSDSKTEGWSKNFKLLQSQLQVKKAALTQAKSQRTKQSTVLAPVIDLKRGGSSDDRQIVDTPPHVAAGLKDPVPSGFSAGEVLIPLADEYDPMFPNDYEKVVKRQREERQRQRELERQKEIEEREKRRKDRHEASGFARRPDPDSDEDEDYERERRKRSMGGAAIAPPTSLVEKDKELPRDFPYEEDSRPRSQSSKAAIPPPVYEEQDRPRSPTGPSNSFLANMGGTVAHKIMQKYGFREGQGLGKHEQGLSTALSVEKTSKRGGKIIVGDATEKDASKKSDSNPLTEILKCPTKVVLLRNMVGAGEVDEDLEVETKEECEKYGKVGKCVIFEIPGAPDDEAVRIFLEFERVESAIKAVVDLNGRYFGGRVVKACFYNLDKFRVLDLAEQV
Outline: as §1

SRSF9 = SRSF9 (UniProt Q13242)
SRSF9, sequence (Q13242 whole entry): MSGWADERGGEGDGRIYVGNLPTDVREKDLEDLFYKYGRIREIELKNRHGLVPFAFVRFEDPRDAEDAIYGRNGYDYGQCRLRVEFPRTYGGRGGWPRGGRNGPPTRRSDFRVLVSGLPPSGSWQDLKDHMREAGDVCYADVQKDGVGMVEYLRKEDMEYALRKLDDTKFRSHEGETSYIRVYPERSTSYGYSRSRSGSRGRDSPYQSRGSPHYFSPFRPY
Outline: as §1

Sequence	Kd (AQR) [nM]	Kd (FUBP3) [nM]	Kd (LSM4) [nM]	Kd (RBM17) [nM]	Kd (SRSF9) [nM]
AAUAAA	213	245	70.5	940	
CUGUCCU					2230
UAUUUAU	320	241	241	59.9	5920
